{
  "source": "patent US9289468B2",
  "about": "“Fusion protein comprising circularly permuted form of trail/Apo2L, coding gene and use thereof” (Beijing Sunbio Biotech Co. Ltd., priority 2011, dated 2016)",
  "molecules": {"B1": {"name": "NCPT-1.M1: MG+His6+NCPT-1 fusion protein, SEQ ID NO: 5 (protein)", "chain": "MGHHHHHHTLSSPNSKNEKALGRKINSWESSRSGHSFLSNLHLRNGELVIHEKGFYYIYSQTYFRFQEEIKENTKNDKQMVQYIYKYTSYPDPILLMKSARNSCWSKDAEYGLYSIYQGGIFELKENDRIFVSVTNEHLIDMDHEASFFGAFLVGGGGGGRVAAHITGTRGRSNT", "modifications": "NCPT-1.M1 polypeptide sequence"}},
  "key": {"H460 cells [1]": {"test_system": "H460 cells", "test": "Time-effect relationship in killing lung cancer cell line (phase contrast morphology)", "assay_type": "cell-based, human", "conditions": "50 ng/ml", "description": "FIG. 1. Observation of the killing effect of NCPT-1.M1 on H460 cells under phase contrast microscope.\nAt 37° C., H460 cells (ATCC) were adherently cultured to logarithmic growth phase in RPMI1640 medium containing 10% FBS in cell culture flask in 5% CO2 incubator."}, "[2]": {"test_system": "human lung cancer cell line NCI-H460", "test": "TUNEL staining of apoptosis", "assay_type": "cell-based", "conditions": "15 ng/ml, 4 h", "description": "FIG. 4. TUNEL assay of apoptosis of human lung cancer cell line NCI-H460 induced by NCPT-1.M1. The NCI-H460 cells were incubated with NCPT-1.M1 (15 ng/ml) for 4 h and then prepared as smears before TUNEL staining. […] In control group, nucleus remains intact, and no characteristic brown stained chromatins are seen (A).\nDuring the process of apoptosis, the genomic DNA can be broken into double-strand, low molecular weight DNA fragments and high molecular weight single-stranded DNA fragments with broken ends (gaps), and these DNA strand gaps can be identified using enzyme-labeled nucleotide 3′-terminal labeling method. In the case of catalytic action of terminal deoxynucleotidyl transferase (TdT), FITC-labeled nucleotide can be incoporated to the free 3′ end nucleotide with template-independent manner, and thereby making the gap of the DNA strand labeled (TUNEL method). The labeling FITC can be recognized by horseradish peroxidase (POD) conjuncated sheep-derived Fab fragment. Upon development with DAB (3,3-diaminobenzidine), the cells stained as brown, which were apoptotic cells, were examined under light microscopy. TUNEL technique is a common method to detect apoptosis. The apoptosis upon incubation of NCI-H460 cell with NCPT-1.M1 was examined using TUNEL technique. […]"}, "H460 cells [3]": {"test_system": "H460 cells", "test": "Cell survival by MTT assay with or without Caspase-8 inhibitor zIETD-fmk", "assay_type": "cell-based, human", "conditions": "24 h", "description": "H460 cells were incubated with NCPT-1.M1 (1.2 or 10 ng/ml) in the presence or absence of Caspase-8 inhibitor zIETD-fmk (concentration of 30 μmmol/L, added 1 h earlier than NCPT-1.M1) for 24 h, and then cell survival rate was measured by MTT assay.\nH460 cells were incubated with NCPT-1.M1 of 1.2 ng/ml and 10 ng/ml (the culture method is same as the above) for 24 h, and cell survival rates measured by MTT assay were 60% and 16%, respectively. […] Caspase-8 inhibitor zIETD-fmk (Santa Cruz) was added, and 1 h later, 1.2 ng/ml or 10 ng/ml NCPT-1.M1 was added and co-incubated for 24 h, then, the resulting cell survival rates were 100% and 90%, respectively."}, "[4]": {"test_system": "human COLO 205 xenograft tumor", "test": "Inhibitory activity on human colon cancer xenograft tumors", "assay_type": "in vivo, Balb/c nu mice", "description": "4 to 5 weeks old Balb/c nu mice ♂ (Institute of Experimental Animals, Chinese Academy of Medical Sciences) were subcutaneously inoculated with COLO 205 human colon tumor tissue pieces. When the tumor grew to the volume of 120 mm3, the tumor-bearing mice were divided into 4 groups (n=7/group), which were intraperitoneally injected with normal saline (negative control group), NCPT-1.M1 5 mg/kg, NCPT-1.M1 15 mg/kg and wtTRAIL 15 mg/kg once a day for 10 consecutive days. […] During the experiment, the tumor length diameter (a) and wide diameter (b) were measured every two days with a vernier caliper, and tumor volume (TV) was calculated according to the following formula: TV=½×a×b^2; From the above, the relative tumor volume (RTV) was calculated according to following formula: RTV=Vt/V0. Wherein V0 is the tumor volume measured on the day of the administration, but before administration (i.e., d0), and Vt is the tumor volume measured every time. The relative tumor proliferation rate T/C (%) is used as an evaluation index. Evaluation criteria: T/C (%)>40% means no effect; T/C (%)≦40% and the statistical significance of P<0.05 means being effective.\n(§1) T/C %=RTVT/RTVC*100%. (RTVT: RTV of the treatment group; […]: RTV of the negative control group)."}, "RPMI8226 tumor": {"test_system": "RPMI8226 tumor", "test": "Combination with melphalan and prednisone on human multiple myeloma xenograft tumor", "assay_type": "in vivo, Balb/c nu athymic nude mice", "conditions": "NCPT-1.M1 15 mg/kg ip x10 days; melphalan 0.75 mg/kg po x5 days; prednisone 10 mg/kg po x10 days", "description": "Male Balb/c nu athymic nude mice (Beijing Huafukang Biotechnology Co., Ltd.) were subcutaneously inoculated with 5×10^6 RPMI8226 tumor cells/mouse. […] The tumor volumes were measured with a caliper every two days."}, "[5]": {"test_system": "NCI-H460 human lung tumor", "test": "Combination with paclitaxel and carboplatin on human lung cancer xenograft tumor", "assay_type": "in vivo, Balb/c nu athymic nude mice", "conditions": "H460 tumor nude mice", "description": "5-6 weeks old Balb/c nu athymic nude mice ♂ (provided by Institute of Experimental Animals, Chinese Academy of Medical Sciences) were subcutaneously inoculated with NCI-H460 human lung tumor. When the tumor grew to the size of about 150 mm3, the mice were divided into following and administered: normal saline control group (ip.), NCPT-1.M1 monotherapy group (15 mg/kg, i.p., once a day for 9 consecutive days), chemotherapy group (PC regimen: paclitaxel 30 mg/kg i.p. and carboplatin 60 mg/kg i.p., administered once on the first day), NCPT-1.M1 combination chemotherapy group (administration manner and dosage of each drug are same as the above). During the experiment, the tumor length diameter (a) and wide diameter (b) were measured every two days with a vernier caliper, and tumor volume (, TV) is calculated according to the following formula: TV=½×a×b^2. From the above, the relative tumor volume (RTV) was calculated according to following formula: RTV=Vt/V0. Wherein V0 is the tumor volume measured on the day of the administration, but before administration (i.e., d0), and Vt is the tumor volume measured every time. The relative tumor proliferation rate T/C (%) is used as an evaluation index.\nas §1"}, "[6]": {"conditions": "5 mg/kg i.p. once a day for 10 days"}, "[7]": {"conditions": "15 mg/kg i.p. once a day for 10 days"}, "[8]": {"conditions": "NCPT-1.M1 15 mg/kg i.p. x9 days, paclitaxel 30 mg/kg, carboplatin 60 mg/kg i.p. once day 1"}},
  "note": "Entries after “also recorded” stand apart in the source; their conditions may differ.",
  "data": [
    {"molecule": "B1", "values": [
      {"measurement": "incubation time for appearance of morphological apoptosis changes", "setting": "H460 cells [1]", "value": "1-2 h"},
      {"measurement": "incubation time resulting in apoptosis of maximum number of cells", "setting": "H460 cells [1]", "value": 6, "unit": "h"},
      {"measurement": "apoptosis by TUNEL staining", "setting": "[2]", "value": "a large number of NCI-H460 cells experience apoptosis; also recorded: Almost all of the tumor cells exhibit characteristic of apoptosis"},
      {"measurement": "cell survival rate", "setting": "H460 cells [3]; 1.2 ng/ml, 30 μmol/L zIETD-fmk added 1 h earlier", "value": 100, "unit": "%"},
      {"measurement": "cell survival rate", "setting": "H460 cells [3]; 1.2 ng/ml, no inhibitor", "value": 60, "unit": "%"},
      {"measurement": "cell survival rate", "setting": "H460 cells [3]; 10 ng/ml, 30 μmol/L zIETD-fmk added 1 h earlier", "value": 90, "unit": "%"},
      {"measurement": "cell survival rate", "setting": "H460 cells [3]; 10 ng/ml, no inhibitor", "value": 16, "unit": "%"},
      {"measurement": "relative tumor volume RTV", "setting": "[4]; [6]", "value": 1.39},
      {"measurement": "tumor proliferation rate T/C(%)", "setting": "[4]; [6]", "value": 29.89, "unit": "%"},
      {"measurement": "Tumor volume TV beginning", "setting": "[4]; [6]", "value": "117 ± 20.4", "unit": "mm^3"},
      {"measurement": "Tumor volume TV ending", "setting": "[4]; [6]", "value": 197, "unit": "mm^3"},
      {"measurement": "relative tumor volume RTV", "setting": "[4]; [7]", "value": 0.12},
      {"measurement": "Tumor volume TV beginning", "setting": "[4]; [7]", "value": "118 ± 21.0", "unit": "mm^3"},
      {"measurement": "Tumor volume TV ending", "setting": "[4]; [7]", "value": 15, "unit": "mm^3"},
      {"measurement": "evaluation of efficacy (T/C ≦40% and P<0.05 means being effective)", "setting": "[4]; both dosage groups of NCPT-1.M1 (5, 15 mg/kg), wtTRAIL 15 mg/kg", "value": "effective"},
      {"measurement": "mice in which the tumors completely disappeared", "setting": "RPMI8226 tumor", "value": 16, "unit": "%"},
      {"measurement": "Body weight(g) begining", "setting": "[5]; [8]", "value": "19.9 ± 3.08", "unit": "g"},
      {"measurement": "Body weight(g) ending", "setting": "[5]; [8]", "value": "20.9 ± 3.32", "unit": "g"},
      {"measurement": "RTV", "setting": "[5]; same regimens", "value": "7.32 ± 3.736"},
      {"measurement": "T/C", "setting": "[5]; same regimens", "value": 43.9, "unit": "%"},
      {"measurement": "Tumor size(mm^3) begining", "setting": "[5]; same regimens, begining", "value": "156 ± 82.6", "unit": "mm^3"},
      {"measurement": "Tumor size(mm^3) ending", "setting": "[5]; same regimens, ending", "value": "867 ± 255.7", "unit": "mm^3"}
    ]}
  ]
}
